Source: patent publication US20240216518A1 (HARPOON THERAPEUTICS, published 2024)

How the values were obtained:
FLT3 TriTAC = target: T1, FLT3 TriTAC; test: biolayer interferometry
T1 construct: Single-chain trispecific; also called constitutively active FLT3 TriTAC

[1] = target: T2, stub:Active control; αCD19 T:A:C stub:Active; test: ELISA on recombinant human CD3ε
T2 construct: Single-chain trispecific; also called TriTAC-XR active drug; constitutively active CD19 TriTAC
T2 sequence (chain, as listed by the source): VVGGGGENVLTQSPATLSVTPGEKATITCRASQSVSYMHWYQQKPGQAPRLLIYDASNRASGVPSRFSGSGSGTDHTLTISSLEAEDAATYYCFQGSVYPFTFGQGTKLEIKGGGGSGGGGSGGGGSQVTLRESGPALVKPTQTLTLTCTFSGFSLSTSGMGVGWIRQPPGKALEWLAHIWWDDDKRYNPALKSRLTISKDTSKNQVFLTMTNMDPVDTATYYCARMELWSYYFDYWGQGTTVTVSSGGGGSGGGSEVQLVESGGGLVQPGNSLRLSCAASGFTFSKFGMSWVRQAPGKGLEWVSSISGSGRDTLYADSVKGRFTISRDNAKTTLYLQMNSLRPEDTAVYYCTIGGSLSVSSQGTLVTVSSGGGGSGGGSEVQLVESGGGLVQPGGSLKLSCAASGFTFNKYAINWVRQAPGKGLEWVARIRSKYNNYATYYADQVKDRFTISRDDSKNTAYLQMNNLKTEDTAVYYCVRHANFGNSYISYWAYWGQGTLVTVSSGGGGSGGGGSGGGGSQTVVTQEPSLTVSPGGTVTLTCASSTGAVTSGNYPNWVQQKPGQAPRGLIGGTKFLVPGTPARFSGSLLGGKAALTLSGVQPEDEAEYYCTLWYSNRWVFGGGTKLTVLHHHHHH

T1 sequence (chain, as listed by the source): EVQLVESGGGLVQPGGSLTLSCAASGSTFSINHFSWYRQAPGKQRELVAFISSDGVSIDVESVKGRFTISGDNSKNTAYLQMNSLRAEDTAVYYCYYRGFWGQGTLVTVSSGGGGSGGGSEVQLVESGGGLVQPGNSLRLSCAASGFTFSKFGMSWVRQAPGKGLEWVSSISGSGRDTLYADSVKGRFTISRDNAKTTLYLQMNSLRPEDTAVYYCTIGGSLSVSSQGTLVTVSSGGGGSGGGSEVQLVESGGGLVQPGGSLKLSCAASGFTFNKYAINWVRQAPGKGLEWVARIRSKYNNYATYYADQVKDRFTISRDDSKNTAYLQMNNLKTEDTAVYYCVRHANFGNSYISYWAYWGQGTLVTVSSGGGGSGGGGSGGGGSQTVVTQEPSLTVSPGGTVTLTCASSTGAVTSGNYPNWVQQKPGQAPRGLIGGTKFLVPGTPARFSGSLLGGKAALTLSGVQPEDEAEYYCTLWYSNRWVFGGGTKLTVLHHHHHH

| Binder | Kd (FLT3 TriTAC) [nM] | binding result [1] |
| --- | --- | --- |
| cynomolgus CD3 (receptor) QDGNEEMGSITQTPYQVSISGTTVILTCSQHLGSEAQWQHNGKNKEDSGDRLFLPEFSEMEQSGYYVCYPRGSNPEDASHHLYLKARVCENCMEMD | 3.3 | – |
| recombinant human CD3ε (receptor, UniProt P07766 23-126, looked up) DGNEEMGGITQTPYKVSISGTTVILTCPQYPGSEILWQHNDKNIGGDEDDKNIGSDEDHLSLKEFSELEQSGYYVCYPRGSKPEDANFYLYLRARVCENCMEMD | – | binds |
| cynomolgus albumin (other, UniProt A2V9Z4 25-608, looked up, also called cynomolgus serum albumin) DTHKSEVAHRFKDLGEEHFKGLVLVAFSQYLQQCPFEEHVKLVNEVTEFAKTCVADESAENCDKSLHTLFGDKLCTVATLRETYGEMADCCAKQEPERNECFLQHKDDNPNLPPLVRPEVDVMCTAFHDNEATFLKKYLYEVARRHPYFYAPELLFFAARYKAAFAECCQAADKAACLLPKLDELRDEGKASSAKQRLKCASLQKFGDRAFKAWAVARLSQKFPKAEFAEVSKLVTDLTKVHTECCHGDLLECADDRADLAKYMCENQDSISSKLKECCDKPLLEKSHCLAEVENDEMPADLPSLAADYVESKDVCKNYAEAKDVFLGMFLYEYARRHPDYSVMLLLRLAKAYEATLEKCCAAADPHECYAKVFDEFQPLVEEPQNLVKQNCELFEQLGEYKFQNALLVRYTKKVPQVSTPTLVEVSRNLGKVGAKCCKLPEAKRMPCAEDYLSVVLNRLCVLHEKTPVSEKVTKCCTESLVNRRPCFSALELDEAYVPKAFNAETFTFHADMCTLSEKEKQVKKQTALVELVKHKPKATKEQLKGVMDNFAAFVEKCCKADDKEACFAEEGPKFVAASQAALA | 4.4 | – |
| cynomolgus FLT3 (receptor) NQDLPVIKCVLINHKNNDSSVGKSSSYPMVSESPEDLGCALRPQSAGTVYEAATVEVDVSASITLQVLVDTPGNISCLWVFKHSSLNCQPHFDVQNRGVVSMVILKMTETQAGEYLLFIQSEATNYTIVFTVSIRNTLLFTLRRPYFRKMENQDALVCISESVPEPIVEWVLCDSQGESCKEESPAVVKKEEKVLHELFGTDIRCCARNELGRECTRLFTIDLNQTPQTTLPQLFLKVGEPLWIRCKAVHVNHGFGLTWELENKALEEGSYFEMSTYSTNRTMIRILFAFVSSVARNDTGYYTCSSSKHPSQSALVTIVEKGFINATNSSEDYEIDQYEEFCFSVRFKAYPQIRCTWTFSRKAFPCEQKALDDGYSVSKFCNHKHQPGEYIFHAENGDAQFTKMFTLNIRRKPQVLAEASASQASCSSDGYPLPSWTWKKCSDKSPNCTEDIPEGVWNRKANRKVFGQWVSSSTLNMSEAMKGFLVKCCAYNSLGTSCETILLNSPGPFPFIQDS | 2.7 | – |
